From US20050158769

What was measured:
[1] = system: T1, MseI restriction endonuclease (R.MseI) (Micrococcus sp. NEB#446); test: cleavage_in_vitro; conditions: NEBuffer 2 (50 mM NaCl, 10 mM MgCl2, 10 mM Tris-HCl, 1 mM DTT, pH 7.9) + BSA, 37 C; 1 unit digests 1 ug lambda DNA in 1 h
T1 sequence: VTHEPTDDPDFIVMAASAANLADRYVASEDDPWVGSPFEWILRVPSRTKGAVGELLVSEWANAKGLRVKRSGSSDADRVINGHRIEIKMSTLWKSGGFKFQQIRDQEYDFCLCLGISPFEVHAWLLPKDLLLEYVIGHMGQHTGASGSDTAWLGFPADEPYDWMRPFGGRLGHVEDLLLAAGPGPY

[2] = system: T2, MseI restriction endonuclease (native) (Micrococcus sp. NEB#446); test: cleavage_in_vitro; conditions: native enzyme; substrate inferred from the unit assay
T2 sequence: T1 sequence

lambda DNA showed an activity (units total purified) [1] of 2.6e+07 and an activity (units total purified (approx.)) [2] of 10000.
